# Source: PMC9300723
# Molecular target: F5M-σ^A1.1^(S2C), fluorescein-labelled σ1.1 domain of Pae σ^A (Pseudomonas aeruginosa)
# Assay: fluorescence polarisation; 2 nM fluorescein-labelled σ1.1 domain, Pae RNAP core enzyme 0-4096 nM; 10 mM Tris-HCl pH 7.7, 100 mM NaCl, 1 mM DTT, 1% glycerol, 0.025% Tween-20; 10 min at room temperature
substance,measurement,value
Pae RNAP core enzyme (from UniProt O52760 1-333; Q51561 1-1357; Q9HWC9 2-1399; B7V5M8 1-88) (complex),Kd,0.22 µM
